Test results as given in the RNAGym collection of RNA variant scans (doi:10.7554/elife.80360).

B1: CPEB3 Ribozyme (parent)
chain: GGGGGCCACAGCAGAAGCGUUCACGUCGCGGCCCCUGUCAGAUUCUGGUGAAUCUGCGAAUUCUGCUGU

Variants of: B1
Assay: self-cleavage, relative activity (ratio to wild type); higher = more cleavage; co-transcriptional

Variant	self-cleavage
A13C U62C	0.475
A13C U62A	0.348
C12U G30C	0.67
C12U G30U	0.368
A13G U36G	0.227
G14A G47A	0.826
A13U G28U	0.165
A13G C39A	0.602
A13U G14C	0.351
G14C G30U	0.157
G14C G30C	0.142
A13U U53C	0.357
G14A U53A	0.362
G14A U53G	0.344
G14A C33U	0.747
G14A C33G	0.414
A13C U67A	0.783
A13C U67C	0.706
G14C G56A	0.31
C12U C45U	1.01
C12U C45G	0.98
A13U C57A	0.194
G14C C34U	0.653
G14C C24G	0.131

Variant	self-cleavage
G14C C24A	0.136
A13G U46C	0.927
G14A A59C	0.343
G14C U44C	0.189
A13C G37C	0.156
G14A G17A	0.134
G14A G17C	0.175
G14C C66G	0.447
G14C G65U	0.242
G14A A15G	0.823
G14A A15U	0.424
A13C C24G	0.0828
A13G C33A	0.942
A13G C33U	0.946
A13U C66G	0.413
A13G G68U	0.95
A13G G68C	0.924
A13U U55C	0.403
C12U U61C	0.579
C12U U61G	0.644
A13G U69A	1
A13G G30U	0.241
A13C G48C	0.917
A13C G48A	0.957

Variant	self-cleavage
A13C G48U	0.934
G14C G58U	0.817
G14C G58C	0.497
A13G U61A	0.834
A13C C32U	0.89
A13C C32G	0.192
A13C G47A	0.922
A13U A60C	0.318
A13U G48A	0.911
G14A U21C	0.413
G14A U21G	0.121
G14A U21A	0.646
C12U C32U	0.999
C12U U62C	0.511
A13U U20A	0.0602
A13C A40G	0.738
A13G C18U	0.382
A13G C22A	0.106
A13G C22U	0.207
A13U G25U	0.108
A13U G25C	0.0789
G14A C24G	0.148
G14A U36G	0.134
A13G U20A	0.0779

Variant	self-cleavage
A13G U20C	0.199
C12U C57U	0.317
G14A U38C	0.501
G14A U38G	0.152
A13C C57U	0.248
A13C C57G	0.235
A13G U26A	0.767
G14C C32U	0.716
A13C G65U	0.41
A13G G48C	0.971
A13U U36C	0.647
G14C U61C	0.241
G14C A52C	0.459
G14C A52U	0.562
C12U G68C	1.01
A13G U44C	0.824
A13G U44A	0.877
A13C A52G	0.823
A13C G31C	0.131
G14A G41C	0.179
G14A G41U	0.264
A13C C33G	0.231
A13C C33U	0.774
G14A G30U	0.21

Variant	self-cleavage
G14A G30C	0.281
A13G G47C	0.997
A13C C29G	0.141
A13G A16C	0.175
A13G A16U	0.714
A13G A16G	0.855
G14A C32U	0.802
C12U C35G	0.45
C12U C35A	0.275
C12U C35U	0.947
A13U C33U	0.894
A13G A42C	0.647
A13G A42G	0.855
A13C C35A	0.281
A13C G19A	0.109
A13C G19C	0.107
A13C U38A	0.679
A13C U38C	0.668
A13C U38G	0.0833
A13U G47C	0.877
A13U A42C	0.586
A13C A51U	0.744
A13C A51C	0.827
G14A G19U	0.091

Variant	self-cleavage
C12U U67C	0.978
A13G A23U	0.997
A13G A23G	0.804
G14C A23G	0.365
A13U C63U	0.648
G14C U20G	0.151
G14A C29A	0.23
G14A C29G	0.167
G14A C63U	0.98
G14A C63G	0.73
G14U A15C	0.415
G14C C18U	0.155
G14C C18A	0.149
G14A C22A	0.178
G14A C22U	0.17
A13U C18A	0.132
A13C U61A	0.459
A13C U61G	0.406
A13C C34A	0.511
A13C C34U	0.929
C12U U55A	0.756
C12U G50U	0.953
A13C U55A	0.315
A13C U55G	0.322

Variant	self-cleavage
G14C U26A	0.346
A13G U43A	0.617
G14C A15U	0.179
G14C A15G	0.725
C12U U53C	0.785
A13C A15U	0.145
A13C A15C	0.264
C12U C39A	0.756
C12U C63A	0.56
C12U C63U	0.898
A13U C35U	0.826
A13U C35A	0.197
A13U C34U	0.917
A13U U43G	0.221
A13C C27G	0.048
G14C C57G	0.203
A13G G41C	0.547
A13G G41U	0.583
G14A C35A	0.202
G14A C35G	0.236
G14A A42U	0.329
G14A A42G	0.372
C12U U49A	1.02
C12U U44A	0.954

Variant	self-cleavage
C12U U44G	0.866
C12U U46G	1
G14A U26G	0.401
G14A U26C	0.432
A13G G19C	0.13
G14A G28A	0.147
G14A G28U	0.112
A13U U26G	0.287
A13U U26C	0.422
A13U U26A	0.626
A13U C22G	0.148
A13U C22A	0.161
A13U C22U	0.171
A13U A40U	0.265
A13U A40C	0.163
A13C U53C	0.352
A13C U53G	0.63
A13G G65C	0.345
A13G G65A	0.653
G14C U43C	0.399
G14C U43A	0.204
A13U C39U	0.422
A13C U36A	0.175
A13C U36G	0.201

Variant	self-cleavage
A13C G50A	0.913
G14C A40U	0.199
A13G G17C	0.052
G14A C27G	0.116
A13C G25U	0.104
A13C G25A	0.129
A13U G17C	0.116
G14A C34U	0.751
A13G C66U	0.756
A13G C66A	0.295
G14A U46A	0.85
A13G C27A	0.425
A13G C27G	0.137
A13U U44A	0.659
A13C G30A	0.497
G14A U49G	0.842
G14A U49A	0.742
A13G G28A	0.139
A13C U64C	0.614
G14C G17U	0.138
A13U C24G	0.127
G14A A52G	0.805
G14A G65A	0.258
G14C G48U	0.805

Variant	self-cleavage
A13C U43C	0.685
G14A C57U	0.229
A13G G31C	0.241
G14A U64A	0.444
A13C G68U	0.892
C12U G56U	0.802
C12U G56C	0.554
A13C C39A	0.372
A13C C39G	0.538
A13U A59U	0.464
A13U U49G	0.901
A13U U49A	0.91
G14C G19C	0.126
G14C G19U	0.156
C12U U43A	0.868
G14A U69C	1
G14A U69A	0.875
G14A U69G	0.934
G14C C35A	0.173
A13U G41U	0.333
G14C C54A	0.264
C12U C54U	0.968
C12U U36C	0.892
C12U U21C	0.9

Variant	self-cleavage
G14A U55A	0.289
C12U G14U	0.345
C12U G14C	0.146
G14A A51G	0.81
G14C A60U	0.249
G14C A60C	0.21
A13U C45U	0.904
C12U U20G	0.17
G14C C63G	0.971
G14C U53C	0.19
G14C U53A	0.326
A13C G17U	0.125
G14A G68U	0.765
G14A G68A	0.866
A13C	0.913
A13G	0.97
A13U	0.888
A13G C45G	0.847
A13G U67G	0.897
G14A A23U	0.875
A13G C57A	0.448
A13U C32U	0.862
G14C U69A	0.769
C12U G41C	0.617

Variant	self-cleavage
C12U G41A	0.716
A13G A52U	0.989
A13G C54U	0.937
C12U C29A	0.451
G14C A51U	0.489
A13U G58U	0.911
A13U G58C	0.788
C12U U38A	0.88
A13G U55A	0.722
G14A G31U	0.207
A13C C22G	0.149
A13C C22A	0.0721
G14C A59G	0.62
A13G A40C	0.306
C12U G19U	0.339
C12U G58C	1.01
A13G C24G	0.368
A13C G41A	0.27
A13C A60U	0.276
C12U C27G	0.174
A13G A15U	0.547
A13C U69A	0.915
A13C U69C	1.06
A13G C35U	0.952

Variant	self-cleavage
A13G C35A	0.167
A13C U46A	0.901
A13C U46G	0.885
A13U G56U	0.348
A13C C45U	0.876
G14A C54G	0.312
G14A C54U	0.755
G14A U61C	0.246
G14A U61G	0.414
C12U U69G	1.05
C12U U69A	1.02
A13U G31A	0.623
C12U C33A	0.924
C12U C33G	0.656
G14A G37C	0.114
G14A G37U	0.138
A13U G37A	0.184
G14A A40U	0.21
A13U C27U	0.134
A13U C27G	0.155
A13C A42C	0.602
A13U U62C	0.278
A13U U62G	0.299
G14C U55G	0.185

Variant	self-cleavage
A13G A51U	0.905
A13G A51G	0.843
G14C U38A	0.308
G14C U38C	0.284
G14C U49C	0.55
C12U G48A	0.963
C12U G48C	0.972
A13C A23C	0.83
A13U A23C	0.793
A13G U49G	0.989
A13G U49C	1.01
C12U C66U	0.798
C12U C66G	0.556
A13U C54G	0.419
G14A U20C	0.181
G14A	0.832
G14U	0.855
G14C	0.689
G14C G47C	0.794
A13U U67G	0.827
A13C U20G	0.089
A13G C29U	0.133
